Measured values published in the supplement of paper PMC12338614.
± gives the uncertainty stated by the source.

B1: library; numbered along this chain (parent)
chain: MEVVDPQQLGMFTEGELMSVGMDTFIHRIDSTEVIYQPRRKRAKLIGKYLMGDLLGEGSYGKVKEVLDSETLCRRAVKILKKKKLRRIPNGEANVKKEIQLLRRLRHKNVIQLVDVLYNEEKQKMYMVMEYCVCGMQEMLDSVPEKRFPVCQAHGYFCQLIDGLEYLHSQGIVHKDIKPGNLLLTTGGTLKISDLGVAEALHPFAADDTCRTSQGSPAFQPPEIANGLDTFSGFKVDIWSAGVTLYNITTGLYPFEGDNIYKLFENIGKGSYAIPGDCGPPLSDLLKGMLEYEPAKRFSIRQIRQHSWFRKKHPPAEAPVPIPPSPDTKDRWRSMTVVPYLEDLHGADEDEDLFDIEDDIIYTQDFTVPGQVPEEEASHNGQRRGLPKAVCMNGTEAAQLSTKSRAEGRAPNPARKACSASSKIRRLSACKQQ

Variants of: B1
Experiment: STK11 functional score (HeLa growth suppression), rescaled enrichment; synonymous median = 1, nonsense median = 0 (normalised score)
Conditions: with HeLa; variant type: missense
Summary of the method: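 The functional score takes the post/pre-selection log ratio, corrects it to wild type, rescales it to synonymous and nonsense medians, and merges it over codons and replicate transfections, with error from bootstrapping. Counts came from tiled gDNA amplicons sequenced on NextSeq (~2 million reads per tile). The libraries were POPCode codon-randomised, codon-optimised STK11 integrated by Bxb1 at an AAVS1 landing pad in HeLa, three regions with three transfections each.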

First: MEVVDPQQLGMFTEGELMSVGMDTFIHRIDSTEVIYQPRRKRAKLIGKYLMGDLLGEGSYGKVKEVLDSETLCRRAVKILKKKKLRRIPNGEANWKKEIQLLRRLRHKNVIQLVDVLYNEEKQKMYMVMEYCVCGMQEMLDSVPEKRFPVCQAHGYFCQLIDGLEYLHSQGIVHKDIKPGNLLLTTGGTLKISDLGVAEALHPFAADDTCRTSQGSPAFQPPEIANGLDTFSGFKVDIWSAGVTLYNITTGLYPFEGDNIYKLFENIGKGSYAIPGDCGPPLSDLLKGMLEYEPAKRFSIRQIRQHSWFRKKHPPAEAPVPIPPSPDTKDRWRSMTVVPYLEDLHGADEDEDLFDIEDDIIYTQDFTVPGQVPEEEASHNGQRRGLPKAVCMNGTEAAQLSTKSRAEGRAPNPARKACSASSKIRRLSACKQQ [V95W]
Second: MEVVDPQQLGMFTEGELMSVGMDTFIHRIDSTEVIYQPRRKRAKLIGKYLMGDLLGEGSYGKVKEVLDSETLCRRAVKILKKKKLRGIPNGEANVKKEIQLLRRLRHKNVIQLVDVLYNEEKQKMYMVMEYCVCGMQEMLDSVPEKRFPVCQAHGYFCQLIDGLEYLHSQGIVHKDIKPGNLLLTTGGTLKISDLGVAEALHPFAADDTCRTSQGSPAFQPPEIANGLDTFSGFKVDIWSAGVTLYNITTGLYPFEGDNIYKLFENIGKGSYAIPGDCGPPLSDLLKGMLEYEPAKRFSIRQIRQHSWFRKKHPPAEAPVPIPPSPDTKDRWRSMTVVPYLEDLHGADEDEDLFDIEDDIIYTQDFTVPGQVPEEEASHNGQRRGLPKAVCMNGTEAAQLSTKSRAEGRAPNPARKACSASSKIRRLSACKQQ [R87G]
The STK11 functional score of the first is lower: 0.452 ± 0.08 for the first, 1.11 ± 0.083 for the second.

Going from MEVVDPQQLGMFTEGELMSVGMDTFIHRIDSTEVIYQPRRKRAKLIGKYLMGDLLGEGSYGKVKEVLDSETLCRRAVKILKKKKLRRIPNGEANVKKEIQLLRRLRHKNVIQLVDVLYNEEKQKMYMVMEYCVCGMQEMLDSVPEKRFPVCQAHGYFCQLIDGLEYLHSQGIVHKDIKPGNLLLTTGGTLKISDLGVAEALHPFAADDTCRTSQGSPAFQPPEIANGLDTFSGFKVDIWSAGVTLYNITTGLYPFEGDNIYKLFENIGKGSYAIPGDCGPPLSDLLKGMLEYEPAKRFSIRQIRQHSWFRKKHPPAEAPVPIPPSPDTKDRWRSMTVVPYLEDLHGADEDEDLFDIEDDIIYTQDFTVPGQVPEEEASHNGQRRGLPKAVCMNGTEAAQLSTKGRAEGRAPNPARKACSASSKIRRLSACKQQ [S404G] to MEVVDPQQLGMFTEGELMSVGMDTFIHRIDSTEVIYQPRRKRAKLIGKYLMGDLLGEGSYGKVKEVLDSETLCRRAVKILKKKKLRRIPNGEANVKKEIQLLRRLRHKNVIQLVDVLYNEEKQKMYMVMEYCVCGMQEMLDSVPEKRFPVCQAHGYFCQLIDGLEYLHSQGIVHKDIKPGNLLLTTGGTLKISDVGVAEALHPFAADDTCRTSQGSPAFQPPEIANGLDTFSGFKVDIWSAGVTLYNITTGLYPFEGDNIYKLFENIGKGSYAIPGDCGPPLSDLLKGMLEYEPAKRFSIRQIRQHSWFRKKHPPAEAPVPIPPSPDTKDRWRSMTVVPYLEDLHGADEDEDLFDIEDDIIYTQDFTVPGQVPEEEASHNGQRRGLPKAVCMNGTEAAQLSTKSRAEGRAPNPARKACSASSKIRRLSACKQQ [L195V], the STK11 functional score falls from 1.57 ± 0.28 to 0.433 ± 0.14.

MEVVDPQQLGMFTEGELMSVGMDTFIHRIDSTEVIYQPRRKRAKLIGKYLMGDLLGEGSYGKVKEVLDSETLCRRAVKILKKKKLRRIPNGEANVKKEIQLLRRLRHKNVIQLVDVLYNEEKQKMYMVMEYCVCGMQEMLDSVPEKRFPVCQAHGYFCQLIDGLEYLHSQGIVHKDIKPGNLLLTTGGTLKISDLGVAEALHPFAADDTCRTSQGSPAFQPPEIANGLDTFSGFKVDIWSAGVTLYNITTGLYPFEGDNIYKLFENIGKGSYAIPGDCGPPLSDLLKGMLEYEPAKRFSIRQIRQHSWFRKKHPPAEAPVPIPPSPDTKDRWRSMTVVPYLEDLHGADEDEYLFDIEDDIIYTQDFTVPGQVPEEEASHNGQRRGLPKAVCMNGTEAAQLSTKSRAEGRAPNPARKACSASSKIRRLSACKQQ [D352Y] and MEVVDPQQLGMFTEGELMSVGMDTFIHRIDSTEVIYQPRRKRAKLIGKYLMGDLLGEGSYGKVKEVLDSETLCRRAVKILKKKKLRRIPNGEANVKKEIQLLRRLRHKNVIQLVDVLYNEEKQKMYMVMEYCVCGMQEMLDSVPEKRFPVCQAHGYFCQLIDGLEYLHSQGIVHKDIKPGNLLLTTGGTLKISDLGVAEALHPFAADDTCRTSQGSPAFQPPEIANGLDTFSGFKVDIWSAGVTLYNITTGLYPFEGDNIYKLFENIGKGSYAIPGDCGPPLSDLLKGMLEYEPAKRFSIRQIRQHSWFRKKHPPAEAPVPIPPSPDTKDRWRSMTVVPYLEDLHGADEDEDLFDIEDDIIYTQDFTVPGQVPEEEASHNGQRRGLPKAVCINGTEAAQLSTKSRAEGRAPNPARKACSASSKIRRLSACKQQ [M392I] are within error of each other in STK11 functional score: 0.953 ± 0.14 for the first, 1.42 ± 0.52 for the second.

Compared with MEVVDPQQLGMFTEGELMSVGMDTFIHRIDSTEVIYQPRRKRAKLIGKYLMGDLLGEGSYGKVKEVLDSETLCRRAVKILKKKKLRRIPNGEANVKKEIQLLRRLRHKNVIQLVDVLYNEEKQKMYMVMEYCVCGMQEMLDSVPEKRFPVCQAHGYFCQLIDGLEYLHSQGIVHKDIKPGNLLLTTGGTLKISDLGVAEALHPFAADDTCRTSQGSPAFQPPEIANGLDTFSGFKVDIWSAGVMLYNITTGLYPFEGDNIYKLFENIGKGSYAIPGDCGPPLSDLLKGMLEYEPAKRFSIRQIRQHSWFRKKHPPAEAPVPIPPSPDTKDRWRSMTVVPYLEDLHGADEDEDLFDIEDDIIYTQDFTVPGQVPEEEASHNGQRRGLPKAVCMNGTEAAQLSTKSRAEGRAPNPARKACSASSKIRRLSACKQQ [T244M], MEVVDPQQLGMFTEGELMSVGMDTFIHRIDSTEVIYQPRRKRAKLIGKYLMGDLLGEGSYGKVKEVLDSETLCRRAVKILKKKKLRRIPNGEANVKKEIQLLRRLRHKNVILLVDVLYNEEKQKMYMVMEYCVCGMQEMLDSVPEKRFPVCQAHGYFCQLIDGLEYLHSQGIVHKDIKPGNLLLTTGGTLKISDLGVAEALHPFAADDTCRTSQGSPAFQPPEIANGLDTFSGFKVDIWSAGVTLYNITTGLYPFEGDNIYKLFENIGKGSYAIPGDCGPPLSDLLKGMLEYEPAKRFSIRQIRQHSWFRKKHPPAEAPVPIPPSPDTKDRWRSMTVVPYLEDLHGADEDEDLFDIEDDIIYTQDFTVPGQVPEEEASHNGQRRGLPKAVCMNGTEAAQLSTKSRAEGRAPNPARKACSASSKIRRLSACKQQ [Q112L] is lower in STK11 functional score: 1.38 ± 0.098 for the first, 1.08 ± 0.2 for the second.

MEVVDPQQLGMFTEGELMSVGMDTFIHRIDSTEVIYQPRRKRAKLIGKYLMGDLLGEGSYGKVKEVLDSETLCRRAVKILKKKKLRRIPNGEANVKKEIQLLRRLRHKNVIQLVDVLYNEEKQKMYMVMEYCVCGMQEMLDSVPEKRFPVCQAHGYFCQLIDGLEYLHSQGIVHKDIKPGNLLLTTGGTLKISDLGVAEALHPFAADDTCRTSQGSPAFQPPEIANGLDTFNGFKVDIWSAGVTLYNITTGLYPFEGDNIYKLFENIGKGSYAIPGDCGPPLSDLLKGMLEYEPAKRFSIRQIRQHSWFRKKHPPAEAPVPIPPSPDTKDRWRSMTVVPYLEDLHGADEDEDLFDIEDDIIYTQDFTVPGQVPEEEASHNGQRRGLPKAVCMNGTEAAQLSTKSRAEGRAPNPARKACSASSKIRRLSACKQQ [S232N] and MEVVDPQQLGMFTEGELMSVGMDTFIHRIDSTEAIYQPRRKRAKLIGKYLMGDLLGEGSYGKVKEVLDSETLCRRAVKILKKKKLRRIPNGEANVKKEIQLLRRLRHKNVIQLVDVLYNEEKQKMYMVMEYCVCGMQEMLDSVPEKRFPVCQAHGYFCQLIDGLEYLHSQGIVHKDIKPGNLLLTTGGTLKISDLGVAEALHPFAADDTCRTSQGSPAFQPPEIANGLDTFSGFKVDIWSAGVTLYNITTGLYPFEGDNIYKLFENIGKGSYAIPGDCGPPLSDLLKGMLEYEPAKRFSIRQIRQHSWFRKKHPPAEAPVPIPPSPDTKDRWRSMTVVPYLEDLHGADEDEDLFDIEDDIIYTQDFTVPGQVPEEEASHNGQRRGLPKAVCMNGTEAAQLSTKSRAEGRAPNPARKACSASSKIRRLSACKQQ [V34A] are within error of each other in STK11 functional score: 1.28 ± 0.44 for the first, 1.03 ± 0.57 for the second.

MEVVDPQQLGMFTEGELMSVGMDTFIHRIDSTEVIYQPRRKRAKLIGKYLMGDLLGEGSYGKVKEVLDSETLCRRAVKILKKKKLRRIPNGEANVKKEIQLLRRLRHKNVIQLVDVLYNEEKQKMYMVMEYCVCGMQEMLDSVPEKRFPVCQAHGYFCQLIDGLEYLHSQGIVHKDIKPGNLLLTTGGTLKISDLGVAEALHPFAADDTCRTSQGSPAFQPPEIANGLDTFSGFKVDIWSAGVTLYNITTGLYPFYGDNIYKLFENIGKGSYAIPGDCGPPLSDLLKGMLEYEPAKRFSIRQIRQHSWFRKKHPPAEAPVPIPPSPDTKDRWRSMTVVPYLEDLHGADEDEDLFDIEDDIIYTQDFTVPGQVPEEEASHNGQRRGLPKAVCMNGTEAAQLSTKSRAEGRAPNPARKACSASSKIRRLSACKQQ [E256Y] and MEVVDPQQLGMFTEGELMSVGMDTFIHRIDSTEVIYQPRRKRAKLIGKYLMGDLLGEGSYGKVKEVLDSETLCRRAVKILKKKKLRRIPNGEANVKKEIQLLRRLRHKNVIQLVDVLYNEEKQKMYMVMEYCVCGMQEMLDSVPEKRFPVCQAHGYFCQLIDGLEYLHSQGIVHKDIKPGNLLLTTGGTLKISDLGVAEALHPFAADDTCRTSQGSPAFQPPEIANGLDTFSGFKVDIWSAGVTLYNITTGLYPFEGDNIYKLFENIGKGSYAIPGDCGPPLSDLLKGMLEYEPAKRFSIRVIRQHSWFRKKHPPAEAPVPIPPSPDTKDRWRSMTVVPYLEDLHGADEDEDLFDIEDDIIYTQDFTVPGQVPEEEASHNGQRRGLPKAVCMNGTEAAQLSTKSRAEGRAPNPARKACSASSKIRRLSACKQQ [Q302V] are within error of each other in STK11 functional score: 1.4 ± 0.16 for the first, 1.21 ± 0.28 for the second.

First: MEVVDPQQLGMFTEGELMSVGMDTFIHRIDSTEVIYQPRRKRAKLIGKYLMGDLLGEGSYGKVKEVLDSETLCRRAVKILKKKKLRRIPNGEANVKKEIQLLRRLRHKNVIQLVDVLYNEEKQKMYMVMEYCVCGMQEMLDSVPEKRFPVCQAHGYFCQLIDGFEYLHSQGIVHKDIKPGNLLLTTGGTLKISDLGVAEALHPFAADDTCRTSQGSPAFQPPEIANGLDTFSGFKVDIWSAGVTLYNITTGLYPFEGDNIYKLFENIGKGSYAIPGDCGPPLSDLLKGMLEYEPAKRFSIRQIRQHSWFRKKHPPAEAPVPIPPSPDTKDRWRSMTVVPYLEDLHGADEDEDLFDIEDDIIYTQDFTVPGQVPEEEASHNGQRRGLPKAVCMNGTEAAQLSTKSRAEGRAPNPARKACSASSKIRRLSACKQQ [L164F]
Second: MEVVDPQQLGMFTEGELMSVGMDTFIHRIDSTEVIYQPRRKRAKLIGKYLMGDLLGEGSYGKVKEVLDSETLCRRAVKILKKKKLRRIPNGEANVKKEIQLLRRLRHKNVIQLVDVLYNEEKQKMYMVMEYCVCGMQEMLDSVPEKRFPVCQAHGYFCQLIDGLEYLHSQGIVHKDIKPGNALLTTGGTLKISDLGVAEALHPFAADDTCRTSQGSPAFQPPEIANGLDTFSGFKVDIWSAGVTLYNITTGLYPFEGDNIYKLFENIGKGSYAIPGDCGPPLSDLLKGMLEYEPAKRFSIRQIRQHSWFRKKHPPAEAPVPIPPSPDTKDRWRSMTVVPYLEDLHGADEDEDLFDIEDDIIYTQDFTVPGQVPEEEASHNGQRRGLPKAVCMNGTEAAQLSTKSRAEGRAPNPARKACSASSKIRRLSACKQQ [L182A]
The STK11 functional score of the first is lower: -0.208 ± 0.089 for the first, 0.345 ± 0.096 for the second.
